Data reported in US20200231640A1 (ANTIBIOTIC ALTERNATIVES, published 2020).
One block for each binder: values may come before it.

Key:
S100A9 subunit = target: T1, S100A9 subunit (human, UniProt P06702 1-114); assay: immunofluorescence of mRNA-transfected KB cells with the heterodimer-specific antibody 27E10
T1 construct: Captured with anti-S100A9 from lysate of cells that also express S100A8, so it probably stood in the complex; also called MRP14; calgranulin B
T1 sequence (looked up): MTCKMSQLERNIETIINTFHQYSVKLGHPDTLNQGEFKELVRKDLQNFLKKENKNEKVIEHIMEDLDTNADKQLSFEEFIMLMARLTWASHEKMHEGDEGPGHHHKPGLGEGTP
Description: After CAMP, S100A8/S100A9 mRNA transfection for 16 hours, cells were fixed with 4% paraformaldehyde for 10 minutes, washed with PBS (pH 7.4), and then permeabilized with 0.25% Triton X-100 for 10 minutes. After blocking one hour with 1% BSA in PBS/0.1% Tween 20 and rinsing 3× with PBS, cells were incubated with mouse anti-calprotectin (mAb 27E10, sc-33714, Santa Cruz Biotechnolology, Inc., Santa Cruz, Calif.) or mouse anti-LL37 (sc-166770, Santa Cruz Biotechnolology, Inc., Santa Cruz, Calif.) for one hour, followed by Alexa Fluor 568-conjugated goat anti-mouse IgG or Alexa Fluor 488-conjugated goat anti-rabbit IgG (Life Technologies Corp., Carlsbad, Calif.) for one hour. For EGFP mRNA transfection, no antibody incubation was needed. Nuclei were stained with DAPI. Fluorescence images were captured using an epifluorescence microscope system. A8-IRES-A9 and A8-nIRES-A9 mRNA transfection for 40 hours were also performed.

Chk1 = target: T2, Chk1 (human, UniProt O14757 1-476); assay: co-immunoprecipitation from cell lysate
T2 construct: also called checkpoint kinase Chk1; p-Chk1 (Ser345)
T2 sequence (looked up): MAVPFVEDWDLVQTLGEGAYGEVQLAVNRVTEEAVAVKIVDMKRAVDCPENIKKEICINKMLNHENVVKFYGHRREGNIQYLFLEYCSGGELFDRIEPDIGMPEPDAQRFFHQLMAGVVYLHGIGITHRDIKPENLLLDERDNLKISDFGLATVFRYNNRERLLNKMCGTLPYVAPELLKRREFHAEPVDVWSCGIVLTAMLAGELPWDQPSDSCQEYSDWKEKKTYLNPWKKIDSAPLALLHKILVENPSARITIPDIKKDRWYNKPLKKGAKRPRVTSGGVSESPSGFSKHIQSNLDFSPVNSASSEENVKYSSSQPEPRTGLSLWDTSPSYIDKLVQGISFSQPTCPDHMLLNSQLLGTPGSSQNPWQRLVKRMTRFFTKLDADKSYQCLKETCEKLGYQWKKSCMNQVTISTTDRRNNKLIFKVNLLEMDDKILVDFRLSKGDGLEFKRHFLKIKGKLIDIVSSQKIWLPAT

binding result (S100A9 subunit): binds
B1: S100A8 (other, human, UniProt P05109 1-93, looked up)
chain: MLTELEKALNSIIDVYHKYSLIKGNFHAVYRDDLKKLLETECPQYIRKKGADVWFKELDINTDGAVNFQEFLILVIKMGVAAHKKSHEESHKE
notes: Expressed in KB cells from transfected mRNA; also called MRP8; calgranulin A

binding result (Chk1): no binding
B2: S100A8/A9 protein complex (calprotectin; S100A8 complexed with S100A9) (other, human)
chain 1: B1 chain
chain 2: T1 sequence (looked up)
notes: Cytosolic complex in lysates of stably transfected KB-S100A8/A9 cells (co-immunoprecipitation), or in mRNA-transfected KB cells (immunofluorescence); also called S100A8/S100A9 heterodimer; MRP8/14
